Results from patent US20250019439A1 (Adimab, published 2025).

What was measured:
ADI-50024 = biological target: T1, ADI-50024; assay: SPR Carterra avidity, CHO anti-ID, *koff limit
T1 construct: anti-CD3 antibody made in CHO cells, captured by anti-human Fc
Protocol: (§1) Kinetic analysis was conducted at 25° C. in an HBSTE running buffer system (Carterra Cat #3630) using a Carterra LSA (Carterra USA, Salt Lake City, UT). The sample compartment was maintained at 20° C. for the duration of each experiment.
(§2) For antibody capture experiments, a goat anti-human Fc antibody (Jackson ImmunoResearch) was covalently coupled to an HC30M sensor chip surface via standard amine coupling (1:1 EDC:NHS) and then blocked with ethanolamine (1.0 M, pH 8.5). Covalent coupling steps were performed in 25 mM MES buffer (Carterra, Cat #3625) plus 0.05% Tween20. The anti-CD3 antibodies (100 nM in running buffer) were flowed over discrete regions of interest on the chip surface for 5 minutes. […] Dissociation of the anti-idiotype antibodies was monitored for 300s. Several blank buffer samples were injected over the entire chip surface at the start of each non-regenerative kinetic cycle. The preceding blank buffer injection was used for blank surface subtraction. At the end of each non-regenerative kinetic cycle, all surfaces were regenerated via two 30s injections of 10 mM glycine, pH 1.7.
(§3) For data processing and fitting, sensorgrams were double reference subtracted with a baseline drift correction of 4 RU. Sensorgrams were y-aligned and baseline corrected, filtered and cropped to include only the association and dissociation steps. Data was fitted to a 1:1 binding model using Carterra Kinetics Data Analysis software version 1.7.1.3055.

ADI-67445 = biological target: T2, ADI-67445; assay: SPR Carterra avidity, CHO anti-ID, *koff limit
T2 construct: anti-CD3 antibody made in CHO cells, captured by anti-human Fc
Protocol: as §1, §2, §3

ADI-67447 = biological target: T3, ADI-67447; assay: SPR Carterra avidity, CHO anti-ID, *koff limit
T3 construct: anti-CD3 antibody made in CHO cells, captured by anti-human Fc
Protocol: as §1, §2, §3

ADI-26909 = biological target: T4, ADI-26909; assay: SPR Carterra avidity, CHO anti-ID, *koff limit
T4 construct: anti-CD3 antibody made in CHO cells, captured by anti-human Fc
Protocol: as §1, §2, §3

ADI-26921 IgG = biological target: T5, ADI-26921 IgG; assay: SPR Carterra avidity, CHO anti-ID, *koff limit
T5 construct: anti-CD3 IgG
Protocol: as §1, §2, §3

ADI-26924 = biological target: T6, ADI-26924; assay: SPR Carterra avidity, CHO anti-ID, *koff limit
T6 construct: anti-CD3 antibody made in CHO cells, captured by anti-human Fc
Protocol: as §1, §2, §3

ADI-26943 = biological target: T7, ADI-26943; assay: SPR Carterra avidity, CHO anti-ID, *koff limit
T7 construct: anti-CD3 antibody made in CHO cells, captured by anti-human Fc
Protocol: as §1, §2, §3

ADI-74967 = biological target: T8, ADI-74967; assay: SPR Carterra avidity, CHO anti-ID, *koff limit
T8 construct: pH-dependent anti-CD3 antibody made in CHO cells
Protocol: as §1, §2, §3

ADI-76357 = biological target: T9, ADI-76357; assay: SPR Carterra avidity, CHO anti-ID, *koff limit
T9 construct: anti-CD3 antibody made in CHO cells, captured by anti-human Fc
Protocol: as §1, §2, §3

ADI-76361 = biological target: T10, ADI-76361; assay: SPR Carterra avidity, CHO anti-ID, *koff limit
T10 construct: anti-CD3 antibody made in CHO cells, captured by anti-human Fc
Protocol: as §1, §2, §3

CTL-62223 = biological target: T11, CTL-62223; assay: SPR Carterra avidity, CHO anti-ID, *koff limit
T11 construct: also called mosunetuzumab
Protocol: as §1, §2, §3

ADI-48650 = biological target: T12, ADI-48650; assay: SPR Carterra avidity, CHO anti-ID; CHO-produced ADI-34134 (Table 10C)
T12 construct: pH-dependent anti-CD3 antibody made in CHO cells
Protocol: as §1, §2
For data processing and fitting, sensorgrams were double reference subtracted with a baseline drift correction of 4 RU. Sensorgrams were y-aligned and baseline corrected, filtered and cropped to include only the association and dissociation steps. […]

ADI-22523 IgG [1] = biological target: T13, ADI-22523 IgG; assay: BLI; tip anti-CD3 IgG, solution ADI-34145 IgG
T13 construct: anti-CD3 IgG
Protocol: (§4) ForteBio affinity measurements were performed generally as previously described (Estep et al., MAbs. 2013 5(2):270-8). Briefly, ForteBio affinity measurements were performed by loading antibody IgG or Fabs on-line onto AHC sensors. Sensors were equilibrated off-line in assay buffer for 30 minutes and then monitored on-line for 60 seconds for baseline establishment. For avid binding measurement, sensors with loaded antibodies were exposed to IgG or Fab solutions for 3 minutes, afterwards they were transferred to assay buffer for 3 minutes for off-rate measurement. Kinetics data were fit using a 1:1 binding model in the data analysis software provided by ForteBio to obtain equilibrium dissociation constant (KD=koff/kₒₙ) values. In each column, tip-immobilized antibodies are listed first and solution antibodies second.
(§5) CTL-19613 is an IgG1 antibody prepared with anti-CD3 variable domains corresponding with those of clone 12C described in United States Publication Number US 2010/0183615 (e.g., see paragraphs 469-479 and FIG. 25 thereof), which also make up the CD3 binding domain of the bispecific antibody pasotuxizumab. […] In each column, tip-immobilized antibodies are listed first and solution antibodies second.

ADI-26954 IgG [2] = biological target: T14, ADI-26954 IgG; assay: BLI; tip anti-CD3 IgG, solution ADI-34145 IgG
T14 construct: anti-CD3 IgG
Protocol: as §4, §5

CTL-19613 IgG = assay: BLI; tip anti-CD3 IgG, solution ADI-34145 IgG
Protocol: as §4, §5

CTL-19672 IgG = biological target: T15, CTL-19672 IgG; assay: BLI; tip anti-CD3 IgG, solution ADI-34145 IgG
T15 construct: IgG1 with the anti-CD3 variable domains of clone 38E4v1
Protocol: as §4, §5

ADI-26906 IgG [3] = biological target: T16, ADI-26906 IgG; assay: BLI; tip anti-CD3 IgG, solution ADI-34145 IgG
T16 construct: anti-CD3 IgG
Protocol: as §4, §5

ADI-26913 IgG [4] = biological target: T17, ADI-26913 IgG; assay: BLI; tip anti-CD3 IgG, solution ADI-34145 IgG
T17 construct: anti-CD3 IgG
Protocol: as §4, §5

ADI-26920 IgG [5] = biological target: T18, ADI-26920 IgG; assay: BLI; tip anti-CD3 IgG, solution ADI-34145 IgG
T18 construct: anti-CD3 IgG
Protocol: as §4, §5

ADI-26916 IgG [6] = biological target: T19, ADI-26916 IgG; assay: BLI; tip anti-CD3 IgG, solution ADI-34145 IgG
T19 construct: anti-CD3 IgG
Protocol: as §4, §5

ADI-22523 IgG [7] = biological target: T13, ADI-22523 IgG; assay: BLI; tip ADI-34145 IgG, solution anti-CD3 IgG
Protocol: as §4
(§6) In each column, tip-immobilized antibodies are listed first and solution antibodies second.

ADI-26954 IgG [8] = biological target: T14, ADI-26954 IgG; assay: BLI; tip ADI-34145 IgG, solution anti-CD3 IgG
Protocol: as §4, §6

ADI-26906 IgG [9] = biological target: T16, ADI-26906 IgG; assay: BLI; tip ADI-34145 IgG, solution anti-CD3 IgG
Protocol: as §4, §6

ADI-26913 IgG [10] = biological target: T17, ADI-26913 IgG; assay: BLI; tip ADI-34145 IgG, solution anti-CD3 IgG
Protocol: as §4, §6

ADI-26920 IgG [11] = biological target: T18, ADI-26920 IgG; assay: BLI; tip ADI-34145 IgG, solution anti-CD3 IgG
Protocol: as §4, §6

ADI-26916 IgG [12] = biological target: T19, ADI-26916 IgG; assay: BLI; tip ADI-34145 IgG, solution anti-CD3 IgG
Protocol: as §4, §6

ADI-26913 IgG [13] = biological target: T17, ADI-26913 IgG; assay: SPR Carterra avidity, CHO anti-ID, *koff limit
Protocol: as §1, §2, §3

T17 sequence (VH, as listed by the source limits assumed, chain 1 of 2): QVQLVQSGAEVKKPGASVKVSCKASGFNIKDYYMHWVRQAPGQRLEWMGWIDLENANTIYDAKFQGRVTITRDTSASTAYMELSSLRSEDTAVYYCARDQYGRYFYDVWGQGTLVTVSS
T17 sequence (VL, as listed by the source limits assumed, chain 2 of 2): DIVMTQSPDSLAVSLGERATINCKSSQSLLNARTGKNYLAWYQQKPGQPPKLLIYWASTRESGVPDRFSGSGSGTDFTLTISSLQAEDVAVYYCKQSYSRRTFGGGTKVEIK
T18 sequence (VH, as listed by the source limits assumed, chain 1 of 2): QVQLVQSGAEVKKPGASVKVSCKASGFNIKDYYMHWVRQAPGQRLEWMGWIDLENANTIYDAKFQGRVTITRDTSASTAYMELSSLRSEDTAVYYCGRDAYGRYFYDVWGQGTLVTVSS
T18 sequence (VL, as listed by the source limits assumed, chain 2 of 2): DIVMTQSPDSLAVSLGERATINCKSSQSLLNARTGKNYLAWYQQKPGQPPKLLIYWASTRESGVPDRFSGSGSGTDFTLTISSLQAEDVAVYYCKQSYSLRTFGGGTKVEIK
T14 sequence (VH, as listed by the source limits assumed, chain 1 of 2): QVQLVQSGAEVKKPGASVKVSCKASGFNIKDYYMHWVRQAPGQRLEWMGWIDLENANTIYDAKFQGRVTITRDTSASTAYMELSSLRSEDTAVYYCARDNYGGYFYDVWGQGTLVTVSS
T14 sequence (VL, as listed by the source limits assumed, chain 2 of 2): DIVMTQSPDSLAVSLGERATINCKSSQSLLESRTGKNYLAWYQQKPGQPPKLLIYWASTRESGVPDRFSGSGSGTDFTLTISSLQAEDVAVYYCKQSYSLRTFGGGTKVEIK
T13 sequence (VH, as listed by the source limits assumed, chain 1 of 2): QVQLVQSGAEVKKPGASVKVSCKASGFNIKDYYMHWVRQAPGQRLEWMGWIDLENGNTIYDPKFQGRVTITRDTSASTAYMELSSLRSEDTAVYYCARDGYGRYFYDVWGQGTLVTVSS
T13 sequence (VL, as listed by the source limits assumed, chain 2 of 2): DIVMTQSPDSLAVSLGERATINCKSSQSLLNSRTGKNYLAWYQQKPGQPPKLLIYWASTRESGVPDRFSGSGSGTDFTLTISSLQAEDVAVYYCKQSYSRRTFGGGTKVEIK
T19 sequence (VH, as listed by the source, chain 1 of 2): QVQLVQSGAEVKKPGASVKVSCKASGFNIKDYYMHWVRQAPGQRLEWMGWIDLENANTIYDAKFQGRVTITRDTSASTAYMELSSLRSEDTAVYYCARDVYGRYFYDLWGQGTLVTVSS
T16 sequence (VH, as listed by the source limits assumed, chain 1 of 2): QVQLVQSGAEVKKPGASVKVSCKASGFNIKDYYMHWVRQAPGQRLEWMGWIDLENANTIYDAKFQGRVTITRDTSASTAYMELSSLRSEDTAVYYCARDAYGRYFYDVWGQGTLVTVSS
T4 sequence (VH, as listed by the source limits assumed, chain 1 of 2): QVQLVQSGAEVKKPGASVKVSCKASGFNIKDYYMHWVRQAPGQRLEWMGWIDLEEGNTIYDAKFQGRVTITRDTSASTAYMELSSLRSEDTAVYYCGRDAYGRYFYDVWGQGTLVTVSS
T5 sequence (VH, as listed by the source limits assumed, chain 1 of 2): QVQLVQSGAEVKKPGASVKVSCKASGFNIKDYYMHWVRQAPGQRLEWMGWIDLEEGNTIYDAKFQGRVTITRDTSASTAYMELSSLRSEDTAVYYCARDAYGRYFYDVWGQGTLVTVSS
T8 sequence (VH, as listed by the source, chain 1 of 2): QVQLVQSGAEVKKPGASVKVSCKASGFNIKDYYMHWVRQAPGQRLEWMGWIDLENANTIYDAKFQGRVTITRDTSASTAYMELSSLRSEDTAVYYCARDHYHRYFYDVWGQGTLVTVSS
T8 sequence (VL, as listed by the source, chain 2 of 2): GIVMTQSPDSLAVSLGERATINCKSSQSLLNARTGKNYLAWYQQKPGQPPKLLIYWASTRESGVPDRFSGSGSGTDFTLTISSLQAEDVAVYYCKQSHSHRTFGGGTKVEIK
T12 sequence (VH, as listed by the source, chain 1 of 2): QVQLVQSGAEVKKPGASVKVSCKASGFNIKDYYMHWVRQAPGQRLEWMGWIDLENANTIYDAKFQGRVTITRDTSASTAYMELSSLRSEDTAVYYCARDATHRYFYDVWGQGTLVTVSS
T12 sequence (VL, as listed by the source, chain 2 of 2): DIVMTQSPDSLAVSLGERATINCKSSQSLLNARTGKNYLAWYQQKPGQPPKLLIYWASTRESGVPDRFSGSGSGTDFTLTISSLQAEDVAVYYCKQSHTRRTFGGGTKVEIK
T15 sequence (VH, as listed by the source limits assumed, chain 1 of 2): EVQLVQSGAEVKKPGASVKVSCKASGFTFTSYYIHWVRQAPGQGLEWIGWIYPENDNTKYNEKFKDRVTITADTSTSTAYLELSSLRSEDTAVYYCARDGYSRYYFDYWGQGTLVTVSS
T15 sequence (VL, as listed by the source limits assumed, chain 2 of 2): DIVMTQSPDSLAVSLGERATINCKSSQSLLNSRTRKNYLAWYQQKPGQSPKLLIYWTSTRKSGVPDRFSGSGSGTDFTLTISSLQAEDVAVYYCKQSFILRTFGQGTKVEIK
T6 sequence (VH, as listed by the source, chain 1 of 2): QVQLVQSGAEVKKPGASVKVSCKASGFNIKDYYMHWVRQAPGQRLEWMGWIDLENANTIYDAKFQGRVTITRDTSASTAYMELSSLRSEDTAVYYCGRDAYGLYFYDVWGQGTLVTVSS
T2 sequence (VH, as listed by the source limits assumed, chain 1 of 2): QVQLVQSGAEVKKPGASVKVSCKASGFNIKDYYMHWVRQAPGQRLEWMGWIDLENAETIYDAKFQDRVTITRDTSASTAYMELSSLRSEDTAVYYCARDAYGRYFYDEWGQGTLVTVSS
T11 sequence (VH, as listed by the source, chain 1 of 2): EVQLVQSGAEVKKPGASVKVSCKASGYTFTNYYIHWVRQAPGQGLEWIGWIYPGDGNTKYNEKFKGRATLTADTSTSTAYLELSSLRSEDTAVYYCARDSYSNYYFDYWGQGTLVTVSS
T11 sequence (VL, as listed by the source, chain 2 of 2): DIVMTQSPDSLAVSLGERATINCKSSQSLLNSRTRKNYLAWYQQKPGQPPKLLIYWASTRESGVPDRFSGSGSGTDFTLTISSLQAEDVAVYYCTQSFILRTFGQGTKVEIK
T7 sequence (VH, as listed by the source, chain 1 of 2): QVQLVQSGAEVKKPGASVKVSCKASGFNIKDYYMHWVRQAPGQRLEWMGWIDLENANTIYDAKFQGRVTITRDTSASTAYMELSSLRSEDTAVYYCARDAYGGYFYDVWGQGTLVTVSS
T7 sequence (VL, as listed by the source, chain 2 of 2): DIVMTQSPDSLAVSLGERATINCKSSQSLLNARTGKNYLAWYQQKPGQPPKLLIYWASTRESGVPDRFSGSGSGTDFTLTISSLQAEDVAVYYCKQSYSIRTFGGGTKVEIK
T1 sequence (VH, as listed by the source limits assumed, chain 1 of 2): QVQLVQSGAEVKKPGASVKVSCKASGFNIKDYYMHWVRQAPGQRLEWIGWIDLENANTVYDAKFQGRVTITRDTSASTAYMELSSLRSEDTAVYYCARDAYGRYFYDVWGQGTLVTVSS
T1 sequence (VL, as listed by the source limits assumed, chain 2 of 2): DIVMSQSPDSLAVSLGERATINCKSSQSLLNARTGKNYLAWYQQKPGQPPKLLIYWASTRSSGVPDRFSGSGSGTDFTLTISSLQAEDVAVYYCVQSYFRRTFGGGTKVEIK
T10 sequence (VH, as listed by the source, chain 1 of 2): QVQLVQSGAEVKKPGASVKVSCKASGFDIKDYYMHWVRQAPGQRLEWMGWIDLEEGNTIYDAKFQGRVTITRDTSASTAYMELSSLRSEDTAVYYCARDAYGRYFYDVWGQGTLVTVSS
T9 sequence (VH, as listed by the source, chain 1 of 2): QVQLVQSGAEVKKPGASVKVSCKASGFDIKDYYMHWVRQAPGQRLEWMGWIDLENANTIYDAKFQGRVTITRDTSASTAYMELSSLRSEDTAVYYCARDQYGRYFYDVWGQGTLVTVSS
T3 sequence (VH, as listed by the source limits assumed, chain 1 of 2): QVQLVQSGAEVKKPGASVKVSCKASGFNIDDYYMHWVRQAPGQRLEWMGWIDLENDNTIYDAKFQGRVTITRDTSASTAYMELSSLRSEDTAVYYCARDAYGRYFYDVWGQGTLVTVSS

B1: ADI-34134 IgG (antibody, V domains shown)
VH: QVQLVQSGAEVKKPGSSVKVSCKASGGTFSSYAISWVRQAPGQGLEWMGGIIPIFGTANYAQKFQGRVTITADESTSTAYMELSSLRSEDTAVYYCARGAPNYYGSGGYDDGWFDPWGQGTLVTVSS
VL: EIVLTQSPGTLSLSPGERATLSCRASQSVSSDYLAWYQQKPGQAPRLLIYGASSRATGIPDRFSGSGSGTDFTLTISRLEPEDFAVYYCQQFGRVPTFGGGTKVEIK
ADI-50024
  Kd: 0.26 nM
ADI-67445
  Kd: 0.13 nM
ADI-67447
  Kd: 0.12 nM
ADI-26909
  Kd: 0.11 nM
ADI-26921 IgG
  Kd: 0.11 nM
ADI-26924
  Kd: 0.1 nM
ADI-26943
  Kd: 0.1 nM
ADI-74967
  Kd: 0.11 nM
ADI-76357
  Kd: 0.088 nM
ADI-76361
  Kd: 0.094 nM
CTL-62223
  Kd: 0.19 nM
ADI-48650
  binding result: binds

B2: ADI-34145 IgG (antibody, V domains shown)
VH: EVQLLESGGGLVQPGGSLRLSCAASGFTFSSYAMSWVRQAPGKGLEWVSTISGSGGSTYYADSVKGRFTISRDNSKNTLYLQMNSLRAEDTAVYYCARLGGRRGSGSSYYYYYGMDVWGQGTTVTVSS
VL: not shown
notes: anti-ID IgG
ADI-22523 IgG [1]
  Kd: 2.6 nM
ADI-26954 IgG [2]
  Kd: 1.82 nM
CTL-19613 IgG
  binding result: no binding
CTL-19672 IgG
  binding result: no binding
ADI-26906 IgG [3]
  Kd: 8.39 nM
ADI-26913 IgG [4]
  Kd: 1.03 nM
ADI-26920 IgG [5]
  Kd: 3.5 nM
ADI-26916 IgG [6]
  Kd: 7.75 nM
ADI-22523 IgG [7]
  Kd: 2.72 nM
ADI-26954 IgG [8]
  Kd: 7.75 nM
ADI-26906 IgG [9]
  Kd: 8.39 nM
ADI-26913 IgG [10]
  Kd: 8.1 nM
ADI-26920 IgG [11]
  Kd: 14.3 nM
ADI-26916 IgG [12]
  Kd: 48 nM
ADI-26913 IgG [13]
  Kd: 4.4 nM
